For the test, the target named is T1, pYAP (human, UniProt P46937, phosphorylated; site not stated in Example 13 (detected with phospho-YAP1 antibody #4911, Cell Signaling Technology; the anti-pYAP antibody of Examples 5 and 7 is to Ser127)).
T1 construct: full length, endogenous; also called phospho-YAP; phospho-YAP1
Kind of test: co-immunoprecipitation: anti-FLAG IP from lysate of transiently transfected HEK-293T cells, Western blot with anti-phospho-YAP1. The protocol:
To validate these protein complexes, immunoprecipitates (see method described above) were prepared from HEK-293T cells transiently transfected with FLAG-tagged full-length CADM1, CADM3, PVR, PVRL1, and PVRL3, with CADM3-CD4TM-GFP and LGR5-CD4TM-GFP constructs as internal negative controls. Total cell lysates and the immunoprecipitate eluates were run on 4-12% Tris-Glycine Midi Gels (Life Technologies/Invitrogen, Grand Island, N.Y.) and transferred by iBlot onto PVDF membranes (Life Technologies/Invitrogen).

T1 sequence (P46937 whole entry): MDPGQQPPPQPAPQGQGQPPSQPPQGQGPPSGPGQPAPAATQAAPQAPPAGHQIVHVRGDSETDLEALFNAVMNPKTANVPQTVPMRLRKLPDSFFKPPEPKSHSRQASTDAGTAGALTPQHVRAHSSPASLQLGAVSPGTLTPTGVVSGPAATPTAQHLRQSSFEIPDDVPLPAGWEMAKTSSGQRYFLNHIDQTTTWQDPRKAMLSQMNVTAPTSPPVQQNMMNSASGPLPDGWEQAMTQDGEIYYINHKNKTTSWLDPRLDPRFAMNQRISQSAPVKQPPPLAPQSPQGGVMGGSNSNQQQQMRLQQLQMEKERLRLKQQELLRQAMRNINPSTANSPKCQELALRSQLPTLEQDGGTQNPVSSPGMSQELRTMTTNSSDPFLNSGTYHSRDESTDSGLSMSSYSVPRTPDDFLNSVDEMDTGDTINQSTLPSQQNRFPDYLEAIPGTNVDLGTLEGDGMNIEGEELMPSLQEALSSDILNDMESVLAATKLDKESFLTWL

B1: FLAG-tagged full-length PVR (receptor)
chain: WPPPGTGDVVVQAPTQVPGFLGDSVTLPCYLQVPNMEVTHVSQLTWARHGESGSMAVFHQTQGPSYSESKRLEFVAARLGAELRNASLRMFGLRVEDEGNYTCLFVTFPQGSRSVDIWLRVLAKPQNTAEVQKVQLTGEPVPMARCVSTGGRPPAQITWHSDLGGMPNTSQVPGFLSGTVTVTSLWILVPSSQVDGKNVTCKVEHESFEKPQLLTVNLTVYYPPEVSISGYDNNWYLGQNEATLTCDARSNPEPTGYNWSTTMGPLPPFAVAQGAQLLIRPVDKPINTTLICNVTNALGARQAELTVQVKEGPPSEHSGMSRNAIIFLVLGILVFLILLGIGIYFYWSKCSREVLWHCHLCPSSTEHASASANGHVSYSAVSRENSSSQDPQTEGTR
notes: Bait, transiently expressed in HEK-293T cells and immunoprecipitated from lysates with anti-FLAG agarose; also called Poliovirus receptor; NECL-5
Consider B1, for which the binding result is on record as “no binding”.

The values above are taken from patent US20140056890A1 (ONCEMED PHARMACEUTICALS, published 2014).
